Test results: patent publication US20200407442A1 (WUXI BIOLOGICS IRELAND, published 2020)

T1: human LAG-3-ECD.D12.mFc mutant G37A (human, UniProt P18627 38-252)
T1 construct: Alanine scanning mutant; construct limits as for m26
T1 sequence: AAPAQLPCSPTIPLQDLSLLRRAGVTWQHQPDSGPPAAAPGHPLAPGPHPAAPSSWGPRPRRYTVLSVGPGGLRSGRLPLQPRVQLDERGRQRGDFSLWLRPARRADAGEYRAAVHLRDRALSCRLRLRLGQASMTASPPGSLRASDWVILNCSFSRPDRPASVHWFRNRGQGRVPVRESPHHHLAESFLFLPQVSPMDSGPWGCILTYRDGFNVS

T2: human LAG-3-ECD.D12.mFc mutant V61A (human, UniProt P18627 37-252)
T2 construct: Alanine scanning mutant; construct limits as for m26
T2 chain: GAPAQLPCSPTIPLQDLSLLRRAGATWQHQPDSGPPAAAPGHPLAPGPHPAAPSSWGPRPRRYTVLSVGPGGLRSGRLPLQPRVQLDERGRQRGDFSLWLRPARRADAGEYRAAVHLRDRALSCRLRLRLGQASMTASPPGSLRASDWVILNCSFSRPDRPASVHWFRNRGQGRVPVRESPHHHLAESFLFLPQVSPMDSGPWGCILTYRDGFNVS

T3: human LAG-3-ECD.D12.mFc mutant W63A (human, UniProt P18627 37-252)
T3 construct: Alanine scanning mutant; construct limits as for m26
T3 chain: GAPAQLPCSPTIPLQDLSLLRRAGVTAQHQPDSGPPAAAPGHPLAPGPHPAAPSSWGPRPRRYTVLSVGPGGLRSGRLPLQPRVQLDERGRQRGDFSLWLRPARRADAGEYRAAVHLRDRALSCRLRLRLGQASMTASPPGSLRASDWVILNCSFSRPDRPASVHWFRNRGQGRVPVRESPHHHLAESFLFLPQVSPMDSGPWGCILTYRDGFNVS

T4: human LAG-3-ECD.D12.mFc mutant H65A (human, UniProt P18627 37-252)
T4 construct: Alanine scanning mutant; construct limits as for m26
T4 chain: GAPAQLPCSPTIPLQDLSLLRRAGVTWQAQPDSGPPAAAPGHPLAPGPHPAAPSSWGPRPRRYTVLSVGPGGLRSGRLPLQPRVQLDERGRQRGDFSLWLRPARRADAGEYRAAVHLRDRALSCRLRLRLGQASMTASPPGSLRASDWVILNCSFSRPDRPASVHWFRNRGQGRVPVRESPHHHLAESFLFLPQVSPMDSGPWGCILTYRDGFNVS

T5: human LAG-3-ECD.D12.mFc mutant V101A (human, UniProt P18627 37-252)
T5 construct: Alanine scanning mutant; construct limits as for m26
T5 chain: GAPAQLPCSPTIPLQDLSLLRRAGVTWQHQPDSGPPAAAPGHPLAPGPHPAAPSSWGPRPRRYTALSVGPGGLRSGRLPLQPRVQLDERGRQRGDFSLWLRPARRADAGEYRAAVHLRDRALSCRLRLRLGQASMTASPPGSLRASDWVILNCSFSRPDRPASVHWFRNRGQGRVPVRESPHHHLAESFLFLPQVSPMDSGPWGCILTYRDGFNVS

T6: human LAG-3-ECD.D12.mFc mutant L122A (human, UniProt P18627 37-252)
T6 construct: Alanine scanning mutant; construct limits as for m26
T6 chain: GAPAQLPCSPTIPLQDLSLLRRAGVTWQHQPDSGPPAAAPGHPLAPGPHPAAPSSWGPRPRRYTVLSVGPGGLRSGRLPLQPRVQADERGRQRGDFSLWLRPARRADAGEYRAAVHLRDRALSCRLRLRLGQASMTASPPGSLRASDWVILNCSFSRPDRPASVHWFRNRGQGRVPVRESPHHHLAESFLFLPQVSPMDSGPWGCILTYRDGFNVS

T7: human LAG-3-ECD.D12.mFc mutant A139G (human, UniProt P18627 37-252)
T7 construct: construct limits as for m26
T7 chain: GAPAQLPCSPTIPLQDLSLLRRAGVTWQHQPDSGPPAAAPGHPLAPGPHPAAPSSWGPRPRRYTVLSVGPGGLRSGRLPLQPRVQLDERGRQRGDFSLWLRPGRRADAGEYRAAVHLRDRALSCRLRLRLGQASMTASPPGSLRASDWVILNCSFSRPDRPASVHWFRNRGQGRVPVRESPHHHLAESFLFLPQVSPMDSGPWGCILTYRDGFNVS

T8: human LAG-3-ECD.D12.mFc mutant Y147A (human, UniProt P18627 37-252)
T8 construct: Alanine scanning mutant; construct limits as for m26
T8 chain: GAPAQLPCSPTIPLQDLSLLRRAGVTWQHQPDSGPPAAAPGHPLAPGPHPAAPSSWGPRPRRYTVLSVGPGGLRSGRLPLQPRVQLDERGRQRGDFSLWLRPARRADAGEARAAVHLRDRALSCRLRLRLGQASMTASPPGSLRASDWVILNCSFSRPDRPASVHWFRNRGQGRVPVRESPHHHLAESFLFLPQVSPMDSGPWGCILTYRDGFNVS


Key:
Assay in all cases: ELISA, antibody coated, LAG-3 D12.mFc mutant in supernatant, normalised to control mutants
[1] = biological target: T1, human LAG-3-ECD.D12.mFc mutant G37A
Experimental: (§1) For ELISA binding assay, the antibody 1.53.3-uAb-IgG4k or 3.40.19-uAb-hIgG4L (2 μg/mL) was coated in plates. After interacting with the supernatant that contains quantified LAG-3 mutants or human LAG-3-ECD.D12.mFc protein, HRP conjugated anti-mFc antibody (1:5000; Bethyl, USA) was added as a detection antibody. Absorbance was normalized according to the average absorbance of control mutants. After setting an additional cutoff to the binding fold change (<0.75), the final determined epitope residues were identified.

[2] = biological target: T2, human LAG-3-ECD.D12.mFc mutant V61A
Experimental: as §1

[3] = biological target: T3, human LAG-3-ECD.D12.mFc mutant W63A
Experimental: as §1

[4] = biological target: T4, human LAG-3-ECD.D12.mFc mutant H65A
Experimental: as §1

[5] = biological target: T5, human LAG-3-ECD.D12.mFc mutant V101A
Experimental: as §1

[6] = biological target: T6, human LAG-3-ECD.D12.mFc mutant L122A
Experimental: as §1

[7] = biological target: T7, human LAG-3-ECD.D12.mFc mutant A139G
Experimental: as §1

[8] = biological target: T8, human LAG-3-ECD.D12.mFc mutant Y147A
Experimental: as §1

Fold Change [1]	Fold Change [2]	Fold Change [3]	Fold Change [4]	Fold Change [5]	Fold Change [6]	Fold Change [7]	Fold Change [8]	Binder
0.284	0.514	0.171	0.489	0.275	0.391	0.368	0.19	3.40.19-uAb-IgG4L (antibody, V domains shown, Fully human antibody from OMT rats; IgG4 lambda by its name; also called 3.40.19-uAb-hIgG4L) VH: QLQLQESGPGLVKPSETLSLTCTVSGDSISSTSYYWGWIRQPPGKGLEWIGSFYYSGSTYYNPSLKSRVTISVDTSKNQFSLKLNSVTAADTAVYYCARMQLWSYDVDVWGQGTTVTVSS VL: QSALTQPASVSGSPGQSITISCTGTSSDVGGYDYVAWYQQHPGKVPKLMIYDVSERPSGVSNRFSGSKSGNTASLTISGLQAEDEADYYCSSYTSTTTLVVFGGGTKLSVL
0.558	0.637	0.585	0.627	0.504	0.607	0.708	0.637	1.53.3-uAb-IgG4k (antibody, V domains shown, Fully human antibody from OMT rats; IgG4 kappa by its name) VH: QVQLQQWGAGLLKPSETLSLTCGVYGGSFSGYYWSWIRQPPGMGLEWIGEINHRGNTNYNPSLKSRVTISEDTSKNQFSLRLSSVTAADTAVYFCTRGEDYSDYDYYGDFWGQGTLVTVSS VL: EIVLTQSPATLSLSQGERATLSCRASQSISSYLAWYQQKPGQAPRLLIYAASNRATGIPARFSGSGSGTDFTLTISSLEPEDFAIYYCQQRSNWPLTFGGGTKVEIK
